Paper PMC9388150 (Proceedings of the National Academy of Sciences of the …, 2022)
One block for each molecule: values may come before it.

Key:
[1] = biological target: CeOSM-3^G444E (C. elegans) (UniProt P46873)
[2] = biological target: full-length TtKin5 kinesin-2 (T. thermophila) (UniProt Q7YUC7)
SEC-MALS = biological target: the molecule itself; experiment: SEC-MALS

Sequence of CeOSM-3^G444E (C. elegans) (P46873 whole entry G444E): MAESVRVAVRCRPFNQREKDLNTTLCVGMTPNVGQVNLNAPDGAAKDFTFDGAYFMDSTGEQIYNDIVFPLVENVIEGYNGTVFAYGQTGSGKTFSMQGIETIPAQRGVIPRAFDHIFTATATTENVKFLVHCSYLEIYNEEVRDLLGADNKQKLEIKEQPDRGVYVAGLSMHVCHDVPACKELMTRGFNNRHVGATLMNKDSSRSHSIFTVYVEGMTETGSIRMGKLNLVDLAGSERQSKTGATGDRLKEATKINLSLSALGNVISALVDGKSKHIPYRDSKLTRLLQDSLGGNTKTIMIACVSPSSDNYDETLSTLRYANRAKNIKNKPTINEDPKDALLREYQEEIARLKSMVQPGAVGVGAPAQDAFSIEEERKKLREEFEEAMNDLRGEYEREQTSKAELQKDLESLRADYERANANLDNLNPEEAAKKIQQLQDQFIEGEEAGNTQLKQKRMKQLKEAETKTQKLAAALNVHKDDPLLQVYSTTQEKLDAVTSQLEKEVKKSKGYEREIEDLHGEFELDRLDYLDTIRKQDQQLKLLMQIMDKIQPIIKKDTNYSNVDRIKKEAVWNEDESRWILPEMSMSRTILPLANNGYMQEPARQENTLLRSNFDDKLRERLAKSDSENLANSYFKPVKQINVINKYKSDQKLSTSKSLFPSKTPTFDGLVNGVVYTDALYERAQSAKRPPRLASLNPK

velocity of CeOSM-3^G444E with CeIFT70/52 in single-molecule transport assays [1]: 1.7 µm/s
Molecule: CeIFT70/52 adaptor complex (from UniProt Q8I7G4 1-656)

velocity of TtKin5 with TtIFT70/52 in single-molecule transport assays [2]: 2 µm/s
Molecule: TtIFT70/52 adaptor complex

velocity of TtKin5 with TtIFT70 in single-molecule transport assays [2]: 1.5 µm/s
Molecule: TtIFT70 (natural protein)

B1: full-length TtKin5 kinesin-2 (natural protein, T. thermophila, UniProt Q7YUC7 1-836, looked up)
chain: MSSETVKVMVRARPMNKLEISKGCANIVQVDPQTNQIILSNGKDAEAAKVFTYDYVFPPDIQQQTVYENSAFPLVESVVEGYNGTIFAYGQTGCGKTHSMLGKPNDEVEKGIIPRTFSHIINIVESANDKNFLVRCSYIEIYNEEIHDLLGKDAKARMDLKEYPDKGVFVKDLTMNVVKTVAEMEKWMNIGTENRSVGATAMNKDSSRSHSIFTLYIECSYKVEGDTEDHITAGKLNLVDLAGSERQSKTQATGDRLKEATKINLSLSALGNVISALVDGKSQHVPYRDSKLTRLLQDSLGGNTKTIMIAAISPADYNYEETLSTLRYASRAKNIKNQPKVNQDPKDALLKEYADEIKKLKEMLLKQQAGEQVNFNAVVNGNGQQQPQLAIQHSSSHVMNSSEVKKLKEKNDALNAERQQIEEEVKNKEKLFQQQMQEKLMIEQKLKEVEQKFIVGGTADQDKKKKISQMRNKLKKQMQEHEKIQEELKQKDEEFENLEIKYSSLQEELDATKKKVKKLNQKYKQAQSEIKDLEKEHEIQKEDLLDTIRYQQREVKILMSICQMLLTPDEIEIIKGQGEWQDDYQVYKLPPFYFKQKKLNFPKLPAAQAMDMIDQEKQSREIDFMRQNNNFDNRQNNNHQNGNSHSHSNSIKRIPSGTMDNFEDMNKFQFGNGPAKSNNTSRYNNGFQNGSDEFDLSKYDAGGGNSLHSIQESLKEKNNSPNIRIKKAHKVQQQPEKQRIPNVSLDPIESQRISQQKLMGLQDSHFLEPSFQGGEQRRSKNIQLQPIQARPLSNSQTVMNLNQLNKNNINMNSIDFDQIANKTPNRVKLDKIQVPR
stoichiometry N (SEC-MALS): 2
